Assay [1] concerns the target Enterococcus faecalis FabN dehydratase/isomerase, hexahistidine-tagged (Enterococcus faecalis (strain FA2-2)). Kind of assay: SEC.
Assay [2] addresses Enterococcus faecalis FabO 3-ketoacyl-ACP synthase I, hexahistidine-tagged (Enterococcus faecalis (strain FA2-2)). Kind of assay: SEC.

In turn, “Enterococcus faecalis FabN dehydratase/isomerase, hexahistidine-tagged (enzyme)” displayed a stoichiometry N in assay [1] of 6.

Consider “Enterococcus faecalis FabO 3-ketoacyl-ACP synthase I, hexahistidine-tagged (enzyme)”, for which the stoichiometry N in assay [2] was determined as 2.
